The target of assay [1] is T1, rhIL22R-Fc (rhesus IL22R ECD fused to human Fc) (rhesus monkey, UniProt G7MHN4 16-228).
T1 construct: also called rhesus IL-22R1
T1 sequence: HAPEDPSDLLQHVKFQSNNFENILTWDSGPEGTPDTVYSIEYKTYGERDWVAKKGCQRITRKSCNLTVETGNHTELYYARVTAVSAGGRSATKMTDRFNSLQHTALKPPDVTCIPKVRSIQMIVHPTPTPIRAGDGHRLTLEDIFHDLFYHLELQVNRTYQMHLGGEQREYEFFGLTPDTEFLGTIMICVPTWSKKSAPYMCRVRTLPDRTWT
The experiment in a line: off-rate of Fab fragment; method not stated.

The target of assay [2] is T2, recombinant human IL-22R (R&D Systems / Biotechne 2770-LR) (human, UniProt Q8N6P7 16-228).
T2 construct: Bought soluble recombinant protein (said to be 25 kDa); also called hIL22R; IL-22R1
T2 sequence: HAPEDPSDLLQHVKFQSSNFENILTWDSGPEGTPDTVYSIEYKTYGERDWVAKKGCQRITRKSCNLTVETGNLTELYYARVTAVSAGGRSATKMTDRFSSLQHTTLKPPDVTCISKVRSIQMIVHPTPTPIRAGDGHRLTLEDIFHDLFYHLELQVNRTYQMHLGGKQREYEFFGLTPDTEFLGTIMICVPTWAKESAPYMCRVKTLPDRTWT
The experiment in a line: off-rate of Fab fragment; method not stated; Fab fragment; human IL-22R1.

For assay [3], the target named is T2, recombinant human IL-22R (R&D Systems / …). The experiment in a line: SPR (Biacore), purified Fab. (In general: Surface plasmon resonance follows binding to a sensor surface in real time, without labels.)
The target of assay [4] is T3, recombinant mouse IL22R (monomeric, R&D Systems cat 4248-MR) (mouse, UniProt Q80XZ4 16-230).
T3 construct: extracellular domain; also called murine IL-22R; mIL22R
T3 sequence (looked up): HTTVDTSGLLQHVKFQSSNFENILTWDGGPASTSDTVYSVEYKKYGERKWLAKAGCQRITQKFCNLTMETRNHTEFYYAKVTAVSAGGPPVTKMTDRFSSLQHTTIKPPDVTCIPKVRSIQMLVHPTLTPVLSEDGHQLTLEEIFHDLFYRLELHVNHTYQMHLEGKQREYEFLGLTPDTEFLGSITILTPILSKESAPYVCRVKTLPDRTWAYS
The experiment in a line: SPR (Biacore), purified Fab.

The target of assay [5] is T4, human IL-22R A209D mutant on BW cells (human, UniProt Q8N6P7 16-574).
T4 sequence: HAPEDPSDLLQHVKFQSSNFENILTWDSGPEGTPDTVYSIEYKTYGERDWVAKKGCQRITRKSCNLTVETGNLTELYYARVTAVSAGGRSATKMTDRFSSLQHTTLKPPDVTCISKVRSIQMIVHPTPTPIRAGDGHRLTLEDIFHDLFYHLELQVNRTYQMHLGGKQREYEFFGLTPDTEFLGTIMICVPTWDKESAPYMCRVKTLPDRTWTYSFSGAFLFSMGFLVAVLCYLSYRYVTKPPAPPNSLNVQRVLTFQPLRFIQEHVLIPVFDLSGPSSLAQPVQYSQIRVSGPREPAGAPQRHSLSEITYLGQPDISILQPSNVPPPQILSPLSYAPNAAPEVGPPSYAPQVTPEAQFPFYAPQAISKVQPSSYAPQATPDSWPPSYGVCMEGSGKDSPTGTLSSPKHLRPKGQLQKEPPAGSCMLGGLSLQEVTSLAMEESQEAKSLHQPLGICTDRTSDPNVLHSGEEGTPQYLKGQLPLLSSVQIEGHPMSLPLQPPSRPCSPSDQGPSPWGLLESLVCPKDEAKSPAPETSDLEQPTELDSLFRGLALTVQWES
The experiment in a line: FACS, BW-hIL-22R mutant cells. On the procedure:
The binding of IL22R antibodies and of the benchmark antibody (280.346.TSY) to BW cells over-expressing various IL22R mutants was tested. The IL22R mutants have mutations of amino acids known to be involved in the IL-22/IL22R interaction. In this setup, the antibodies were biotinylated, added to the cells and binding of the antibody to IL22R was detected with labeled streptavidin by Flow cytometry (FACS).
FACS analysis was also carried out as described in Example 8.2 to study the binding of the germlined antibodies to various IL-22R mutants.
For orientation: A flow cytometer gives signals particle by particle.

Assay [6] concerns the target T2, recombinant human IL-22R (R&D Systems / …). The experiment in a line: SPR (Biacore), hIL22R on CM5 chip, mAb injected; rounded range told of 223G5 and 224C4. On the procedure:
(§1) The affinity of the 230C9 and 223G5 antibodies was measured using SPR ([…]). In brief, 250RU of human IL22R (Biotechne, 2770-LR) was coated onto a CM5 chip using standard methods (EDC coupling of IL22R at a concentration of 2 μg/ml in acetate buffer pH4.5). Then various concentrations of antibody were injected in HBSEP+ buffer (pH 7.4) for 2 minutes. The binding was monitored also during a 10 min washing (HBSEP+).

Assay [7] shares this target. The experiment in a line: SPR (Biacore), hIL22R on CM5 chip, mAb injected, 1:1 Langmuir. How it is done:
as §1

For assay [8] the target is unchanged. The experiment in a line: SPR (Biacore), mAb on chip, monomeric hIL22R injected, 1:1 Langmuir. On the procedure: Because of the potential avidity effect observed when a bivalent molecule is used as a ligand during affinity measurement, a reverse experimental setup was tested. In this set-up, the antibodies were coated to 250RU using standard methods. Monomeric human IL22R was added at different concentrations, and the affinities calculated using the BIAevaluation software using a Langmuir 1:1 fitting are shown in Table 21 below.

Assay [9] deals with T5, human IL-22R expressed on cells (BW-hIL22R, Baf3-hIL22R/IL20Rb, transfected HEK, primary human skin cells) (human, UniProt Q8N6P7 16-574).
T5 sequence: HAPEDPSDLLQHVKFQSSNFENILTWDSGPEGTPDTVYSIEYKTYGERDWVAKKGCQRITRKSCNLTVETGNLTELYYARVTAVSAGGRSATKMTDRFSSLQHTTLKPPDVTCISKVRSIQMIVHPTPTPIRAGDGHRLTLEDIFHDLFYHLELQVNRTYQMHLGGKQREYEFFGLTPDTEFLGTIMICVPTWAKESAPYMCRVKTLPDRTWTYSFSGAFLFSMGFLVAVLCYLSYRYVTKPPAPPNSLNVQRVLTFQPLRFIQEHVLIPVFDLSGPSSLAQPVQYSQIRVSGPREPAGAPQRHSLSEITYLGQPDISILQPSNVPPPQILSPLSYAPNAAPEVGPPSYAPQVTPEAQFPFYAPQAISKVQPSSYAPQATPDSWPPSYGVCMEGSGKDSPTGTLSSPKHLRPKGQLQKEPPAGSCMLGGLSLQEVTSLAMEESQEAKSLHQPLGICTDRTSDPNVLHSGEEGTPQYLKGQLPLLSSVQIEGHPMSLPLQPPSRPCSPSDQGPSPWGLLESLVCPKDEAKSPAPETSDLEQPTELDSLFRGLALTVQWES
The experiment in a line: cell-based or functional assay.

The target of assay [10] is T6, cynomolgus monkey IL-22R in ex vivo skin biopsies (cynomolgus monkey, UniProt A0A2K5TKX9 16-573).
T6 sequence: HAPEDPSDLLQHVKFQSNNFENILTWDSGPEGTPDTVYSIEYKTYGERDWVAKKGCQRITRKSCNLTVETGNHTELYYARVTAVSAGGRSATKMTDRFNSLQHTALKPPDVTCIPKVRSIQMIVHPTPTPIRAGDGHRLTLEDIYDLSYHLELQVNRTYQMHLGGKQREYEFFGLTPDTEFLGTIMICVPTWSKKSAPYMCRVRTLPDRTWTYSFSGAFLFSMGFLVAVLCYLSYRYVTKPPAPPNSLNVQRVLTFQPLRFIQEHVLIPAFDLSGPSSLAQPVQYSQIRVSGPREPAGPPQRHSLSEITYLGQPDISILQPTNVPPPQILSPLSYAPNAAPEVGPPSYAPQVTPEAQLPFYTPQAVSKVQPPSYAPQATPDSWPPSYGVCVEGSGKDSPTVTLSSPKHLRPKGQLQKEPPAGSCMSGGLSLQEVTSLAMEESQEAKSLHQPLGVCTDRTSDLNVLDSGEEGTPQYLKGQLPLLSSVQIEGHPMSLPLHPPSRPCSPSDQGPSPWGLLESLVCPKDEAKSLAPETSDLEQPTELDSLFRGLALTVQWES
The experiment in a line: cell-based or functional assay.

The target of assay [11] is T5, human IL-22R expressed on cells …. The experiment in a line: cell-based or functional assay. The source holds these as a separate data set.
Assay [12] shares this target. The experiment in a line: cell-based or functional assay. This is another data set of the same source.
The target of assay [13] is cynoIL22R_ECD-humanTM_humanICD chimera on transfected cells (cynomolgus monkey; human, UniProt Q8N6P7 229-574). The experiment in a line: cell-based or functional assay.
Assay [14] has as its target rhesus IL22R ECD - human TM - human ICD chimera on transfected HEK cells (rhesus monkey; human, UniProt Q8N6P7 229-574). The experiment in a line: cell-based or functional assay.
For assay [15], the target named is T5, human IL-22R expressed on cells …. The experiment in a line: cell-based or functional assay. This is another data set of the same source.

B1: 166G8 Fab (Fab, V domains shown)
VH: QVQLVESGGGLVQPGDSLRLSCAASGFTFGSYFMSWVRQAPGKGPEWVSGIHISGGITYYLDSVKGRFTISRDNAKNTLYLQMNNLKPEDTAVYYCVTPPGPFKAHYNGMKYWGKGTLVTVSS
VL: NFMLTQPPSVSGTLGKTVTISCTGTSRDIGDYNYVSWYQQLPGLAPKLLIYKVNTRSSGTPDRFSGSKSGNTASLTISGLQSEDEADYYCASYRLYADYVFGGGTHLTVL
notes: VH family 5; purified llama Fab
B1: the values for the dissociation rate constant (koff) in [1], in assay [2] and in assay [3] were 0.0222 s⁻¹, 0.00122 s⁻¹ and 0.00088 s⁻¹, respectively. For the same molecule, the binding result in assay [4] is “no binding”.

B2: 223G5 mAb (antibody, human IgG1, lambda, N297Q, V domains shown)
VH: QVQLVESGGGLVQPGGSLRLSCAASGFTFSSYFMSWVRQAPGKGPEWVSGIHISGGITYYTDSVKGRFTISRDNAKNTLYLQMNSLRAEDTAVYYCVTPPGPFKAHYNGAKYWGKGTLVTVSS
VL: QSALTQPPSVSGSPGQSVTISCTGTSSDIGSYNYVSWYQQLPGKAPKLLIYEVNKRSSGVPDRFSGSKSGNTASLTISGLQAEDEADYYCASYRLYADYVFGGGTQLTVLG
notes: Germlined variant of 166G8; also called 223G5-N297Q
B2: in assay [5], the binding result is given as “no binding”. Further, the dissociation constant Kd (as a rule, a measure of binding affinity in units of concentration) in assay [6] lay in the range of 0.01 to 0.02 nM. In assay [7], the equilibrium dissociation constant (Kd) was 0.016 nM; the koff (commonly the first-order rate constant of dissociation) was found to be 0.0001 s⁻¹; the kon (in general, the rate constant with which the complex forms) worked out at 6.6e+06 M⁻¹ s⁻¹.

B3: 230C9 mAb (antibody, human IgG1, lambda, N297Q, V domains shown)
VH: QVQLVESGGGLVQPGGSLRLSCAASGFTFSSYDMNWVRQAPGKGLEWVSSIYNDASNTAYSDSVKGRFTISRDNSKNTLYLQMNSLRAEDTAVYYCAKVGFSGTYYSESWGQGTLVTVSS
VL: SYELTQPSSVSVALGQTARITCQGGYYAHWYQQKPGQAPVLVIYGQNNRPSGIPERFSGSGAGNTATLTISRAQAEDEADYYCQSGSSSSNAVFGGGTKLTVLG
notes: Germlined variant of 218A7; also called 230C9-N297Q; 230C9 N297Q
Consider B3, for which, in assay [8], the equilibrium dissociation constant (Kd) is 0.22 nM, the koff was determined as 0.00022 s⁻¹ and the kon was found to be 920000 M⁻¹ s⁻¹. In assay [9], the “EC50, inhibition of CCL2 levels in primary human keratinocytes stimulated with IL-4, IL-13, IL-22 and IFN-gamma” value was 0.1 nM; the “EC50, reduction of rhIL-22 induced DEFB4 mRNA in human ex vivo skin explants” value is 4 nM. Besides, the “EC50, block of rhIL-22 down-regulation of FLG2 and LOR mRNA in cynomolgus skin biopsies” value in assay [10] was 11 nM. In assay [11], the “IC50 blocking IL-22 (nM), BWhIL22R cell line” value was found to be 0.56 nM and the “Relative potency to 280.346.TSY (IL-22, BWhIL22R cell line)” value is 1.2 fold. In assay [12], the “IC50 blocking IL-20 (nM), Baf3hIL22R/IL20Rb cell line; batch #1” value turned out to be 0.781 nM; the “IC50 blocking IL-20 (nM), Baf3hIL22R/IL20Rb cell line; batch #2” value turned out to be 0.567 nM; the “Relative potency to 280.346.TSY (IL-20); batch #1” value was 1.9 fold; the “Relative potency to 280.346.TSY (IL-20); batch #2” value was 2.6 fold. Besides, the “EC50 (nM), STAT3-reporter in HEK cells after human IL22, Cyno ECD” value in [13] was 0.57 nM. The “EC50 (nM), STAT3-reporter in HEK cells after human IL22, Rhesus ECD” value in assay [14] was determined as 0.48 nM. The “EC50 (nM), STAT3-reporter in HEK cells after human IL22, Human ECD” value in assay [15] was found to be 0.28 nM. In assay [7], the Kd stood at 0.13 nM, the off-rate constant (koff) is 8.9e-05 s⁻¹ and the association rate constant (kon) was determined as 680000 M⁻¹ s⁻¹.

Values taken from patent publication US20230088269A1 (ARGENX BVBA, published 2023).
